In patent US20030144182A1 (IMMUNEX, published 2003):

B1: Dimeric murine CD40-L (Fc fusion, not shown: a dimerising Fc or GST)
chain (part 1 of 2): DYKDDDDK
chain (part 2 of 2): GGGGSGGGGSGGGGSSSHRRLDKVEEEVNLHEDFVFIKKLKRCNKGEGSLSLLNCEEMRRQFEDLVKDITLNKEEKKENSFEMQRGDEDPQIAAHVVSEANSNAASVLQWAKKGYYTMKSNLVMLENGKQLTVKREGLYYVYTQVTFCSNREPSSQRPFIVGLWLKPSSGSERILLKAANTHSSSQLCEQQSVHLGGVFELQAGASVFVNVTEASQVIHRVGFSSFGLLKL
notes: also called Murine Dimer
B2: Trimeric human CD40-L (ligand)
chain: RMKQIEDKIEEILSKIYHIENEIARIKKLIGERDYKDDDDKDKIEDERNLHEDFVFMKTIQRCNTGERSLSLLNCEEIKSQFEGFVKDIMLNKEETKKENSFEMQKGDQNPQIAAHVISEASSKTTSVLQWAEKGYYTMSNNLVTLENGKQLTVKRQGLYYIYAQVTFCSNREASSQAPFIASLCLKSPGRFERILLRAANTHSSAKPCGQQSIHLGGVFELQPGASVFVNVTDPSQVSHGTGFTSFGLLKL
notes: also called trimeric CD40-L; CD40-L trimer

Legend:
CD40/Fc fusion protein [1] = target: T1, CD40/Fc fusion protein (human, UniProt P25942 21-193); assay: BIAcore, CD40/Fc captured by goat anti-human IgG1 Fc; first experiment
T1 construct: extracellular domain; also called s CD40/Fc; C40/Fc
T1 sequence (P25942 other isoform, or with tags, fused parts or gaps limits assumed): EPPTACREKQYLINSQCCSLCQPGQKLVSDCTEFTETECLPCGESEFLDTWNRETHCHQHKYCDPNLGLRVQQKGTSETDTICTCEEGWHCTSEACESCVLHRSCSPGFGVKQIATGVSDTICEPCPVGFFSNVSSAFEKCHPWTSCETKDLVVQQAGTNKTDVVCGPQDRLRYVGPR
Description: (§1) This example illustrates the binding affinities of several different CD40-L constructs. Affinity experiments were conducted by biospecific interaction analysis (BIA) using a biosensor, an instrument that combines a biological recognition mechanism with a sensing device or transducer. An exemplary biosensor is BIAcore™, from Pharmacia Biosensor AB (Uppsala, Sweden; see Faigerstam L. G., Techniques in Protein Chemistry II, ed. J. J. Villafranca, Acad. Press, NY, 1991). BIAcore™ uses the optical phenomenon surface plasmon resonance (Kretschmann and Raether, Z. Naturforschung, Teil. A 23:2135, 1968) to monitor the interaction of two biological molecules.
(§2) The biosensor chips were coated with goat anti-human IgG₁ Fc, which was used to bind CD40/Fc (prepared as described in Example 1) to the chip. The different constructs of CD40-L were then added at increasing concentrations; the chip was regenerated between the different constructs by the addition of sodium hydroxide. Two separate experiments were performed. […] The resultant data were analyzed to determine the affinity and association rate constants of the different CD40-L constructs. […]

CD40/Fc fusion protein [2] = target: T1, CD40/Fc fusion protein; assay: biosensor (BIAcore), CD40/Fc captured on goat anti-human IgG1 Fc; equilibrium binding curve, left panel
Description: as §1, §2

Binder	Site 1 (mol/mol CD40/Fc) (CD40/Fc fusion protein [1])	Site2 (mol/mol CD40/Fc) (CD40/Fc fusion protein [1])	EC50 (read off the curve) (CD40/Fc fusion protein [2]) [nM]
B1	0.05	0.14	
B2			~10
